The supplement of paper PMC9170038

Test system: K4 kissing-loop RNA reporter
Experiment: apparent KD of K4 kissing-loop reporter; higher = weaker reporter binding
Conditions: Eterna round: R107
Method: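 RNA-MaP round R107: designed RNA switches with theophylline, tryptophan, arginine or FMN aptamers are transcribed on-chip within common flanks. They are titrated with a labelled K4 kissing-loop RNA reporter in RNA-MaP buffer (100 mM Tris pH 7.5, 80 mM KCl, 4 mM MgCl2), without ligand or with the indicated ligand. Median apparent KD per design.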

[1] = input ligand: theophylline 20 uM
[2] = input ligand: tryptophan 2.4 mM
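Also: bound reporter read as fluorescence of individual clusters on recovered sequencing chips by microscopy, with normalized cluster intensities fitted with a binding model.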

| Sequence | apparent KD of K4 kissing-loop reporter (input ligand: FMN 200 uM) [nM] | apparent KD of K4 kissing-loop reporter (input ligand: arginine 13.2 mM) [nM] | apparent KD of K4 kissing-loop reporter (input ligand: none) [nM] | apparent KD of K4 kissing-loop reporter [1] [nM] | apparent KD of K4 kissing-loop reporter [2] [nM] |
| --- | --- | --- | --- | --- | --- |
| AUUAAUUUCAGAGGAUAUCGUUAUUUUUUUAAGUAUAAUCUAUUUUGCAGUGAUGUUGCUAUUAAUCGAGAAGGCUGAUUUAUAA [JR_SSFMNB_Sub020] | 109 | 140 | 75.3 | 136 | 72.2 |
| AUUCGUUUAUGUGAUACCAGACUUUGCAGUGAUGUUGCAUUUAUUUUUGAAUUUUAGUUUGUCCCUUGGCAGCACUAUUUAUUUA [JR_SSTheophyB_Sub005] | 44.1 | 87.8 | 50.5 | 83.1 | 42.3 |
| AUUCUAUGGAGUGAUGUUCCUGUGAUGUCACGAGGACCGGUACGGCCGCCACUCGAUGUAUUGGUUUUUGAAAGAAACAACUGCA [Same State-Tryptophan A] | 566 | 701 | 842 | 773 | 279 |
| AUUUAAUUAACUGAUACCAGACUUUUUGUUUUGAUAAUUACUAGUGAUGUUAGUGUUUCUGUCCCUUGGCAGCAGAAUCUACUUA [JR_ExcTheophyB_Sub018] | 145 | 280 | 179 | 347 | 137 |
| AUUUAUGUAUCAGGAUAUUAGUGAUGUUUGUUUUUGUUAGUGAUGUUGAUAUUUGUUUUAUGUAUUUAAGAAGGGAUUGAGAUGU [wwewmullin] | 58.2 | 18.5 | 34.7 | 24.2 | 45.2 |
| AUUUGUUUAUGUGAUACCAGACUAAGCAGUGAUGUUGCUUUUAUUUUUGAAUUUUAAAUAGUCCCUUGGCAGCACUAUGUAUUUA [JR_SSTheophyB_Sub010] | 60.6 | 93.1 | 70.2 | 99.2 | 60.3 |
| AUUUUGUUGUCAGGAUAUUAGUAUGGUUUUGGUUUGUUAGUGAUGUUGAUGGUUUGUUUAUGUAUUUAAGAAGGGAUUUAGCGGU [swwsgumullin] | 693 | 463 | 534 | 573 | 424 |
| AUUUUUUUAUCAGGAUAUUAGUGUUGGUUUGUUUUGUUAGUGAUGUUGAUAUUUGUUUUAUGUAUUUAAGAAGGGAUUGUGAUGU [huupullin] | 473 | 371 | 409 | 381 | 264 |
| CAAAUGUUGUCAGGAUAUGAGCGCAGUGAUGUUGCGGUUGUAUUUAUGACUGGAGCAGCGUAAGCCUCAGAAGGGACAAGUUGCC [Qubioran] | 167 | 92.2 | 106 | 84.9 | 99.3 |
| CAACGAGUGAUGGUCGUUGACGGCCAUCCCGAGGAUAUGGGAUUAUCCAGAAGGCGGGAUCGCCGGGAGUGAUGUUCCCUGAUCA [Same State FMN A GF 14] | 139 | 181 | 168 | 300 | 151 |
| CAAGUCGAAAAGUGAUGUUUUUCAUACGAUACCAGCAACCAGACAUGCCCUUGGCAGCGUCCAUUACGUUUCUGAGCCCGUACAG [theeternabot_exclusion_KL_Theo_A_40] | 360 | 336 | 389 | 388 | 308 |
| CACCAUGAAUUCUCUAGGAGUGAUGUUUUUCGAGGACCGGUACGGCCGCCACUCGGACGAGGACCGUGGGAGCGGCGAAGCGGCU [?oegmullin] | 99.2 | 59.1 | 767 | 169 | 104 |
| CACCCAGUCCUCGAUACCAGACUGGCACGUCAAAAGGUCCAGUGAUGUUGAGCCUAACAAGUCCCUUGGCAGCGACCAGUGUAUU [theeternabot_exclusion_KL_Theo_B_30] | 680 | 573 | 729 | 619 | 623 |
| CACUCGGUAUCAGAUACCAGACUAUCGAUACCGAGUGUAUCGGGUAGUGAUGUUACCAUAGUCCCUUGGCAGCUGAUAUUGCAUA [Theo B SS t9b] | 73.3 | 94.1 | 71.7 | 87.7 | 59.2 |
| CACUUACGUAGUGAUGUUACGAUCUCUGAUACCAGACAACUCUAAGUCCCUUGGCAGCAGUCAUUUUGCUUAUUAUUUACUCAAA [JR_ExcTheophyA_Sub017] | 647 | 597 | 730 | 663 | 456 |
| CAGCCUGGUCAGUGAUGUUGGCCGCAGGGAAAGGAUAUUGUGUUGGCAAGAAGGUUCGCUUGAUCGUUGGCCCAUGCAUGGGCCU [theeternabot_sameState_KL_FMN_A_44] | 186 | 180 | 197 | 280 | 183 |
| CAUACGCAUGGAGGAUAUGAGAUUACUCAUGUCAUUUAAUAUUCUCAGUGAUGUUGAGAUUUUGGCUCAGAAGGCCAUGUGUAUG [Ex FMN B 18] | 436 | 496 | 534 | 599 | 543 |
| CAUACGCAUGGAGGAUAUGAGAUUUCUCAUAUUAUUUAAUAUUCUCAGUGAUGUUGGGAUUUAAACUCAGAAGGCCAUGUGUAUG [Ex FMN B 7] | 259 | 159 | 159 | 234 | 169 |
| CAUAGACAAGUGAUGUUUGUCAUAACCGAAGGAGCGUCGUUGAAGACAGGUAGGUCGCGGAUUAAUUAAGAUUAUAUUCUUUUUA [JR_SSArginiA_Sub019] | 605 | 485 | 634 | 624 | 505 |
| CAUAGGAAACUAUGUUUCUCUCUUACUGAAGGAGCGCGUGAAAACGCAGGUAGGUCGCAGAAUUUGAGAGUGAUGUUCUCAUUAA [Ex Arginine A K4 14] | 119 | 211 | 175 | 201 | 127 |
| CAUUCAGUGAUGUUGGAAGGCGAGCGGGAUACCAGCGGAGACUCACGCCCUUGGCAGCCCACAUAUCCCAGGUAGAUAAUAGUUC [Same State - Theophylline A (Freestyle 6)] | 237 | 139 | 203 | 189 | 188 |

| Sequence | apparent KD of K4 kissing-loop reporter (input ligand: FMN 200 uM) [nM] | apparent KD of K4 kissing-loop reporter (input ligand: arginine 13.2 mM) [nM] | apparent KD of K4 kissing-loop reporter (input ligand: none) [nM] | apparent KD of K4 kissing-loop reporter [1] [nM] | apparent KD of K4 kissing-loop reporter [2] [nM] |
| --- | --- | --- | --- | --- | --- |
| CAUUCGAAAUGCAGUGAUGUUGCAACUGAUACCAGUAUCGAAAGAUACCCUUGGCAGCGGAAAACCGCUACGUAUUUUUUGAAUG [Ex Theophylline A K4 25] | 257 | 317 | 270 | 356 | 253 |
| CAUUGUACACGGUGCGAAGACCCAAUGGAUACCAGCAAUACAUUAUGCCCUUGGCAGCCAAGAGUGAUGUUCGACGGACUAGAUU [theeternabot_sameState_KL_Theo_A_4] | 249 | 175 | 290 | 321 | 233 |
| CCAUCGCUAUUCGAUACCAGCUACUUAGUGAUGUUAAGUUAAAAUCCAUUGUAGAUGGAAAGCCCUUGGCAGCGAAUAGUGAUGG [Theophylline B K4 22] | 440 | 398 | 465 | 210 | 410 |
| CCAUCGCUAUUCGAUACCAGCUACUUAGUGAUGUUAAGUUUUUACCCACUGUAGGUGGGAAGCCCUUGGCAGCGAAUAGUGAUGG [Theophylline B K4 27] | 240 | 203 | 239 | 151 | 209 |
| CCAUCGCUAUUCGAUACCAGUCAUAAAAUCUUUGGUUAAAUAAAGGAGUGAUGUUCCCAAGACCCUUGGCAGCGAAUAGUGAUGG [Theophylline B K4 7] | 229 | 227 | 217 | 266 | 213 |
| CCAUUCAUUUACGAUACCAGUCUAAUAUAUUGAAUCAAAACCCUCGCCGAGUGAUGUUCGGACCCUUGGCAGCGUCUGCGAGAGG [ddrdkmullin] | 596 | 548 | 677 | 543 | 519 |
| CCCAAGGGCCUACCGGUAUGAUGGACGGAUACCAGAGGCGAAAGCCUCCCUUGGCAGCCGGGUGUAGUGAUGUUACUCCGGUAGU | 75.1 | 65.8 | 75 | 78.9 | 72 |
| CCGAUACAUUAUUCUACGGCCGAGAGUGAUACCAGCCAUAUUUAUGGCCCUUGGCAGCGCAGAUGCAGUGAUGUUGCAUACUUAC [Same State Theophylline A GF 19] | 85.7 | 119 | 91.5 | 115 | 73.7 |
| CCGGCCCGGCCGGAUACCAGUGCGCCGCAGGGAACGGCGGGCCCAGAGUGAUGUUCGGGACACCCUUGGCAGCCGCCUGGGUCGC [#2 Same State - Theophylline B Attempt #27 (HarryS)] | 286 | 123 | 231 | 225 | 245 |
| CCGUAGAACGGAAGGAGCGCCAUAGAUAAGAAUUCCGUAAGUGAGUGAUGUUCACACAAAUGGCAGGUAGGUCGCCGUUAUUUAG [Arg B Ex t5] | 178 | 194 | 220 | 202 | 201 |
| CCUAUCUCAUACGAUACCAGUCAAUGAUCUUUGAUCAAUGCCAUCACCGAGUGAUGUUCGGACCCUUGGCAGCGUAUGGGAUAGG [whbob_Ex_Theo_B_sa102] | 267 | 212 | 269 | 364 | 251 |
| CCUCUCCUUGAUAGUGAUGUUAUCAAGGACAAGGAUAUCAUCUCAAUGAGAAGGUGUCCUUGAUAACAUGGAGGUCUGAAACAGA [Omei KL FMN A Exc C v1] | 138 | 126 | 136 | 125 | 122 |
| CCUGCUACGUAAGGAUAUGGAAAUGAGUGAUGUUUAGAGAUAUGGUCCAGGUUUAGUCAUCAUAGACCAGAAGGUACAUCGGGCG [theeternabot_exclusion_KL_FMN_B_8] | 825 | 321 | 588 | 364 | 400 |
| CCUUCUCUUGAUAGUGAUGUUAUCAAGGGCAAGGAUAUCAUCUCAAUGAGAAGGUGUCCUUGAUAACAUGGAGGUCUGAAACAGA [Omei KL FMN A Exc C v4] | 157 | 165 | 209 | 159 | 206 |
| CGAACCUCCAAAGGAUAUCUCGUUUAGUGAUGUUUUGCGUAGUAUCAGGAUAGAAUAUUGAUUCAGAGAGAAGGUUGACGUUGGU [theeternabot_exclusion_KL_FMN_B_14] | 733 | 428 | 684 | 511 | 537 |
| CGAAGACUUAUGGAUACCAGCCUAGCAUCAGGUGGUUCAGAGGCAUGCAGUGAUGUUGCAGGCCCUUGGCAGCCAUGGUACUAGA [Xelebi] | 76 | 71.3 | 70 | 79.8 | 79.7 |
| CGACGGAGUGAUGUUUCGUGGUAUGCUGAUACCAGAUGAAACAGCGUCCCUUGGCAGCAGCAUACGCCAAGGAUAAUAUCCUAGU [Theo B SS t6] | 1200 | 611 | 1770 | 531 | 604 |
| CGCAAGCAGCCAGUGAUGUUGGCCGCCUUGCGAGGACCGGUACGGCCGCCACUCGAAGGCGGCUACUGAUAAUCCGUCUAACGGA [KL-XTryp-A15] | 107 | 85.4 | 102 | 92.4 | 111 |
| CGCAGUGAUGUUGCGAGUAGAUACAGGGAAGGAGCGCGGUAGUACGCAGGUAGGUCGCCCACGCAGUGAUGUUGCGUCAUAGGGU [Exclusion Arginine A GF6] | 103 | 93.1 | 91 | 98.6 | 95.7 |
| CGCCGAAAGGCGAGCGCUCCCACUCCGGAAGGAGCGCCCGAAAGGGCAGGUAGGUCGCCGGAGUGAUGUUCCGGUGGAGGGCUCG [#2 Exclusion - Arginine A Attempt #30 (Inspired by Omei)] | 177 | 167 | 817 | 212 | 296 |
| CGCGCCCGGCCGGAUACCAGUGACCCGCUGGGAACCGCGGGCCCAGAGUGAUGUUCGGGACACCCUUGGCAGCCGCCUGGGCGUG [#2 Same State - Theophylline B Attempt #5 (HarryS)] | 1110 | 364 | 841 | 738 | 550 |
